From PMC7327165 (mBio, 2020)

B1: C11 Fab (Fab, V domains shown)
VH: EVQLVESGGGLVKPGGSLRLSCAASGFTFSSYSMNWVRQAPGRGLEWVSSISNTSTYIYYADSVEGRFTLSRDNAKNSLYLQMNSLRAEDTAVYYCARANQHFDWLLSLLGGYHYYGMDVWGQGTTVTVSS
VL: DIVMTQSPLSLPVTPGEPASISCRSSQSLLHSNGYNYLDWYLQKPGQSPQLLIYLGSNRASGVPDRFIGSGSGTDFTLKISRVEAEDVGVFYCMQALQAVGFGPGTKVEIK
B2: C11 mAb (antibody, V domains shown)
VH: B1 VH
VL: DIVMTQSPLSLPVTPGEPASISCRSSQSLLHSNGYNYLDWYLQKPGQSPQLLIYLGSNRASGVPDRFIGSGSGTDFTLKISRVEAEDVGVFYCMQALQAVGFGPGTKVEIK
B3: CH54 mAb (antibody, V domains shown)
VH: QVQLVQSGPEVKKPGTSMKISCKASGFTFTRSTMQWVRQARGQRLEWIGWIVVGSGNTNYAQKFQERVTITRDMSTSTAYMELSSLRSEDTAVYYCAAAPVGPTSSDYWGQGTLVTVSS
VL: DIQMTQSPSSLSASVGDRVTITCRASQSIINYLNWYQQKPGRAPKLLIYAASSLLSGVPSRFSGSGSGTDFTLTISSLQPEDFATYYCQQSYSTPYTFGQGTKLEIK
B4: CH55 mAb (antibody, V domains shown)
VH: QVQLVQSGAEVKKPGASVKVSCKASGYIFISYFMHWVRQAPGQGLEWMGIINPSSGDTRYAQKFQGRVTMTRDTSTNTVYMELSSLRSDDTAVYYCARRPGGLERHNWLDPWGQGTLVTVSS
VL: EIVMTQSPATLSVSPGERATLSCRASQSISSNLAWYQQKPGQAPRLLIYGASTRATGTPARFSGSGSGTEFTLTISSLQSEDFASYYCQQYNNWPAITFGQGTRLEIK
B5: DH677.3 mAb (antibody, V domains shown)
VH: QVQLVQSGAEVQKPGASVKVSCKASGYTFASYDINWVRQATGQGLEWMGWMNPKTGNTGYAQKFQGRVTLTRNTSISTAYMELTSLRSEDTAVYYCATYRIIAAVGYRYFQYWGQGTLVTVSS
VL: DIQLTQSPSSLSASVGDSVTITCRASQGFGNYLAWYQQRPGKVPEVLIYAATTLQSGVPSRFSGSGSGTDFTLTISSLQPEDVATYYCQKYNSAPFTFGQGTRLEIK
B6: N12-i3 mAb (antibody, V domains shown)
VH: QVQLVQSGAEVKKPGSSVRVSCKASGGSFSRYTVNWVRQAPGQGLEWMARFIPIFNMPDYAPKFQGRITITADESTSTAYLELSSLTSDDTAVYYCASRQHHEYFQEWGQGTLVTVSS
VL: EIVLTQSPGTLSMSPGERATLSCRASRTVSSSNLAWYQQKPGQAPRLLIYDVSSRATGIPDRFSGRGSGTDFTLTISRLEPEDFAVYYCQQYGTSPLTFGGGTKVEIK
B7: A32 mAb (antibody, V domains shown)
VH: QVQLQESGPGLVKPSQTLSLSCTVSGGSSSSGAHYWSWIRQYPGKGLEWIGYIHYSGNTYYNPSLKSRITISQHTSENQFSLKLNSVTVADTAVYYCARGTRLRTLRNAFDIWGQGTMVTVSS
VL: VLTQPPSASGSPGQSVTISCTGTSSDVGGYNYVSWYQHHPGKAPKLIISEVNNRPSGVPDRFSGSKSGNTASLTVSGLQAEDEAEYYCSSYTDIHNFVFGGGTKLTVL

Target: T1, full-length single-chain gp120BaL-CD4 complex (FLSC) (HIV-1 clade B, BaL (gp120 moiety); CD4 …, UniProt Q2MKA8, strain)
T1 construct: also called full-length single-chain protein
Experiment: FRET or BRET + other: fluorescence correlation spectroscopy
Conditions: both partners purified

Binder | binding result
B1 | binds

Target: full-length monomeric gp120 (clade B, BaL strain) (HIV-1 clade B, strain BaL, UniProt Q2MKA8, strain)
Experiment: flow cytometry on cells
Conditions: one partner purified

Binder | binding result
B2 | binds
B3 | binds
B4 | binds
B5 | binds
B6 | binds
B7 | binds
